Laboratory results reported in patent US20240101647A1 (VIB VZW, published 2024).

How the values were obtained:
[1] = biological target: T1, monomeric human Fc-fused SARS-CoV-2_RBD-SD1 (SARS-CoV-2, UniProt P0DTC2 319-591); test: ELISA with periplasmic extract, RBD captured by VHH72-Fc
[2] = biological target: T1, monomeric human Fc-fused …

B1: VHH3.94 (VHH)
VHH: QVQLQESGGGLVQPGGSLRLSCAASGKAVSISDMGWYRQPPGKQRELVATITKSGSTNYANSAQGRFTISRDNAKSAVYLEMNSLKPEDTAVYYCNAWLPYGMGPDYYGMELWGEGTQVTVSS
B1: binds [1].

B2: VHH3.89 (VHH)
VHH: QVQLQESGGGLVQPGGSLRLSCAASGFTLDYYAIGWFREVPGKEREGLSRIDSSDGSTYYADSVKGRFTISRDNTKNIVYLQMNNLKPEDTAVYYCATDPIIQGRNWYWTGWGQGTQVTVSS
Work on B2 yielded a Kd [2] of 0.292 nM.

B3: VHH3.183 (VHH)
VHH: QVQLQESGGGLVQPGGSLRLSCAASGLDYYAIGWFRQAPGKEREGLSRIESSDGSTYYADSVKGRFTISRDNTKNTVYLQMNSLKPEDTAVYYCATDPIIQGSSWYWTSWGQGTQVTVSS
For B3, the koff [2] was 0.0014 s⁻¹.
